Measurements published in patent US20260242419A1, “A CYCLIC PEPTIDE FOR TRAPPING INTERLEUKIN-1 BETA” (Merck Sharp & Dohme LLC, priority 2023, published 2026).
Starred links: 1 amine or outer side, 2 acyl side, 3 side chain; linkers in the order of their positions; H or OH if unused. Non-standard residues stand in square brackets, D forms with d. dProc3Bn4Pyrim2OMe = (2R,3S)-3-[[4-(2-methoxypyrimidin-5-yl)phenyl]methyl]pyrrolidine-2-carboxylic acid, COc1ncc(-c2ccc(C[C@H]3CCN([*:1])[C@H]3C(=O)[*:2])cc2)cn1; dProc3Bn4Im4NMe = (2R,3S)-3-(4-(1-methyl-1H-imidazol-4-yl)benzyl)pyrrolidine-2-carboxylic acid, Cn1cnc(-c2ccc(C[C@H]3CCN([*:1])[C@H]3C(=O)[*:2])cc2)c1; dProc3Bn4Im2NMe = (2R,3S)-3-(4-(1-methyl-1H-imidazol-2-yl)benzyl)pyrrolidine-2-carboxylic acid, Cn1ccnc1-c1ccc(C[C@H]2CCN([*:1])[C@H]2C(=O)[*:2])cc1; dProc3Bn4Iso3Me = (2R,3S)-3-(4-(3-methylisoxazol-4-yl)benzyl)pyrrolidine-2-carboxylic acid, Cc1nocc1-c1ccc(C[C@H]2CCN([*:1])[C@H]2C(=O)[*:2])cc1; dProc3Bn4Pyr2 = (2R,3S)-3-[[4-(2-pyridyl)phenyl]methyl]pyrrolidine-2-carboxylic acid, O=C([C@H]1[C@@H](Cc2ccc(-c3ccccn3)cc2)CCN1[*:1])[*:2]; Phe(4-(trans-4-COOH-cHex)) = N[C@@H](Cc1ccc([C@H]2CC[C@H](C(=O)O)CC2)cc1)C(=O)O; Phe(4-(cis-4-COOH-cHex)) = N[C@@H](Cc1ccc([C@H]2CC[C@@H](C(=O)O)CC2)cc1)C(=O)O; Trp(βS-Me,4-F) = C[C@@H](c1c[nH]c2cccc(F)c12)[C@H](N)C(=O)O; 3Aminoazetidine3carboxyl = O=C(C1(N[*:1])CN([*:3])C1)[*:2]; Bip(4'-COOH) = N[C@@H](Cc1ccc(-c2ccc(C(=O)O)cc2)cc1)C(=O)O; dPro(4R-Bzl(4-F)) = O=C(O)[C@H]1C[C@@H](Cc2ccc(F)cc2)CN1; Ala(pyrimidin-5-yl) = N[C@@H](Cc1cncnc1)C(=O)O; Phe(4-COOH) = N[C@@H](Cc1ccc(C(=O)O)cc1)C(=O)O; Pro(cis-4-F) = O=C(O)[C@@H]1C[C@H](F)CN1; 4Pal = N[C@@H](Cc1ccncc1)C(=O)O; αMeK = C[C@](N)(CCCCN)C(=O)O; Api = NC1(C(=O)O)CCNCC1; Dab = NCC[C@H](N)C(=O)O; Dap = NC[C@H](N)C(=O)O; Aib = CC(C)(N)C(=O)O

B1: SEQ ID NO: 65 (peptide)
peptide: cyclo([Bip(4'-COOH)][4Pal][Phe(4-COOH)]G[Pro(cis-4-F)][Trp(βS-Me,4-F)][Aib]EW[Api][Ala(pyrimidin-5-yl)]Q[Dab]G[dPro(4R-Bzl(4-F))])
SMILES: C[C@@H](c1c[nH]c2cccc(F)c12)[C@@H]1NC(=O)[C@@H]2C[C@H](F)CN2C(=O)CNC(=O)[C@H](Cc2ccc(C(=O)O)cc2)NC(=O)[C@H](Cc2ccncc2)NC(=O)[C@H](Cc2ccc(-c3ccc(C(=O)O)cc3)cc2)NC(=O)[C@H]2C[C@@H](Cc3ccc(F)cc3)CN2C(=O)CNC(=O)[C@H](CCN)NC(=O)[C@H](CCC(N)=O)NC(=O)[C@H](Cc2cncnc2)NC(=O)C2(CCNCC2)NC(=O)[C@H](Cc2c[nH]c3ccccc23)NC(=O)[C@H](CCC(=O)O)NC(=O)C(C)(C)NC1=O
B2: SEQ ID NO: 61 (peptide)
peptide: cyclo([Bip(4'-COOH)][4Pal][Phe(4-COOH)]G[Pro(cis-4-F)][Trp(βS-Me,4-F)][Aib]EW[Aib][Ala(pyrimidin-5-yl)]Q[Dab]G[dProc3Bn4Pyr2])
SMILES: C[C@@H](c1c[nH]c2cccc(F)c12)[C@@H]1NC(=O)[C@@H]2C[C@H](F)CN2C(=O)CNC(=O)[C@H](Cc2ccc(C(=O)O)cc2)NC(=O)[C@H](Cc2ccncc2)NC(=O)[C@H](Cc2ccc(-c3ccc(C(=O)O)cc3)cc2)NC(=O)[C@H]2[C@@H](Cc3ccc(-c4ccccn4)cc3)CCN2C(=O)CNC(=O)[C@H](CCN)NC(=O)[C@H](CCC(N)=O)NC(=O)[C@H](Cc2cncnc2)NC(=O)C(C)(C)NC(=O)[C@H](Cc2c[nH]c3ccccc23)NC(=O)[C@H](CCC(=O)O)NC(=O)C(C)(C)NC1=O
B3: SEQ ID NO: 6 (peptide)
peptide: cyclo([Bip(4'-COOH)][4Pal][Phe(4-COOH)]G[Pro(cis-4-F)][Trp(βS-Me,4-F)][Aib]AW[Aib][Ala(pyrimidin-5-yl)]Q[Dab]G[dPro(4R-Bzl(4-F))])
SMILES: C[C@@H]1NC(=O)C(C)(C)NC(=O)[C@H]([C@@H](C)c2c[nH]c3cccc(F)c23)NC(=O)[C@@H]2C[C@H](F)CN2C(=O)CNC(=O)[C@H](Cc2ccc(C(=O)O)cc2)NC(=O)[C@H](Cc2ccncc2)NC(=O)[C@H](Cc2ccc(-c3ccc(C(=O)O)cc3)cc2)NC(=O)[C@H]2C[C@@H](Cc3ccc(F)cc3)CN2C(=O)CNC(=O)[C@H](CCN)NC(=O)[C@H](CCC(N)=O)NC(=O)[C@H](Cc2cncnc2)NC(=O)C(C)(C)NC(=O)[C@H](Cc2c[nH]c3ccccc23)NC1=O
B4: SEQ ID NO: 62 (peptide)
peptide: cyclo([Bip(4'-COOH)][4Pal][Phe(4-COOH)]G[Pro(cis-4-F)][Trp(βS-Me,4-F)][Aib]EW[Aib][Ala(pyrimidin-5-yl)]Q[Dab]G[dProc3Bn4Iso3Me])
SMILES: Cc1nocc1-c1ccc(C[C@H]2CCN3C(=O)CNC(=O)[C@H](CCN)NC(=O)[C@H](CCC(N)=O)NC(=O)[C@H](Cc4cncnc4)NC(=O)C(C)(C)NC(=O)[C@H](Cc4c[nH]c5ccccc45)NC(=O)[C@H](CCC(=O)O)NC(=O)C(C)(C)NC(=O)[C@H]([C@@H](C)c4c[nH]c5cccc(F)c45)NC(=O)[C@@H]4C[C@H](F)CN4C(=O)CNC(=O)[C@H](Cc4ccc(C(=O)O)cc4)NC(=O)[C@H](Cc4ccncc4)NC(=O)[C@H](Cc4ccc(-c5ccc(C(=O)O)cc5)cc4)NC(=O)[C@@H]23)cc1
B5: SEQ ID NO: 64 (peptide)
peptide: cyclo([Bip(4'-COOH)][4Pal][Phe(4-COOH)]G[Pro(cis-4-F)][Trp(βS-Me,4-F)][Aib]EW[Aib][Ala(pyrimidin-5-yl)]Q[Dab]G[dProc3Bn4Im4NMe])
SMILES: C[C@@H](c1c[nH]c2cccc(F)c12)[C@@H]1NC(=O)[C@@H]2C[C@H](F)CN2C(=O)CNC(=O)[C@H](Cc2ccc(C(=O)O)cc2)NC(=O)[C@H](Cc2ccncc2)NC(=O)[C@H](Cc2ccc(-c3ccc(C(=O)O)cc3)cc2)NC(=O)[C@H]2[C@@H](Cc3ccc(-c4cn(C)cn4)cc3)CCN2C(=O)CNC(=O)[C@H](CCN)NC(=O)[C@H](CCC(N)=O)NC(=O)[C@H](Cc2cncnc2)NC(=O)C(C)(C)NC(=O)[C@H](Cc2c[nH]c3ccccc23)NC(=O)[C@H](CCC(=O)O)NC(=O)C(C)(C)NC1=O
B6: SEQ ID NO: 69 (peptide)
peptide: cyclo([Phe(4-(cis-4-COOH-cHex))][4Pal][Phe(4-COOH)]G[Pro(cis-4-F)][Trp(βS-Me,4-F)][Aib]EW[3Aminoazetidine3carboxyl][Ala(pyrimidin-5-yl)]Q[Dab]G[dPro(4R-Bzl(4-F))])
SMILES: C[C@@H](c1c[nH]c2cccc(F)c12)[C@@H]1NC(=O)[C@@H]2C[C@H](F)CN2C(=O)CNC(=O)[C@H](Cc2ccc(C(=O)O)cc2)NC(=O)[C@H](Cc2ccncc2)NC(=O)[C@H](Cc2ccc([C@H]3CC[C@@H](C(=O)O)CC3)cc2)NC(=O)[C@H]2C[C@@H](Cc3ccc(F)cc3)CN2C(=O)CNC(=O)[C@H](CCN)NC(=O)[C@H](CCC(N)=O)NC(=O)[C@H](Cc2cncnc2)NC(=O)C2(CNC2)NC(=O)[C@H](Cc2c[nH]c3ccccc23)NC(=O)[C@H](CCC(=O)O)NC(=O)C(C)(C)NC1=O
B7: SEQ ID NO: 66 (peptide)
peptide: cyclo([Bip(4'-COOH)][4Pal][Phe(4-COOH)]G[Pro(cis-4-F)][Trp(βS-Me,4-F)][αMeK]EW[Aib][Ala(pyrimidin-5-yl)]Q[Dab]G[dPro(4R-Bzl(4-F))])
SMILES: C[C@@H](c1c[nH]c2cccc(F)c12)[C@@H]1NC(=O)[C@@H]2C[C@H](F)CN2C(=O)CNC(=O)[C@H](Cc2ccc(C(=O)O)cc2)NC(=O)[C@H](Cc2ccncc2)NC(=O)[C@H](Cc2ccc(-c3ccc(C(=O)O)cc3)cc2)NC(=O)[C@H]2C[C@@H](Cc3ccc(F)cc3)CN2C(=O)CNC(=O)[C@H](CCN)NC(=O)[C@H](CCC(N)=O)NC(=O)[C@H](Cc2cncnc2)NC(=O)C(C)(C)NC(=O)[C@H](Cc2c[nH]c3ccccc23)NC(=O)[C@H](CCC(=O)O)NC(=O)[C@](C)(CCCCN)NC1=O
B8: SEQ ID NO: 63 (peptide)
peptide: cyclo([Bip(4'-COOH)][4Pal][Phe(4-COOH)]G[Pro(cis-4-F)][Trp(βS-Me,4-F)][Aib]EW[Aib][Ala(pyrimidin-5-yl)]Q[Dab]G[dProc3Bn4Im2NMe])
SMILES: C[C@@H](c1c[nH]c2cccc(F)c12)[C@@H]1NC(=O)[C@@H]2C[C@H](F)CN2C(=O)CNC(=O)[C@H](Cc2ccc(C(=O)O)cc2)NC(=O)[C@H](Cc2ccncc2)NC(=O)[C@H](Cc2ccc(-c3ccc(C(=O)O)cc3)cc2)NC(=O)[C@H]2[C@@H](Cc3ccc(-c4nccn4C)cc3)CCN2C(=O)CNC(=O)[C@H](CCN)NC(=O)[C@H](CCC(N)=O)NC(=O)[C@H](Cc2cncnc2)NC(=O)C(C)(C)NC(=O)[C@H](Cc2c[nH]c3ccccc23)NC(=O)[C@H](CCC(=O)O)NC(=O)C(C)(C)NC1=O
B9: SEQ ID NO: 68 (peptide)
peptide: cyclo([Phe(4-(trans-4-COOH-cHex))][4Pal][Phe(4-COOH)]G[Pro(cis-4-F)][Trp(βS-Me,4-F)][Aib]EW[3Aminoazetidine3carboxyl][Ala(pyrimidin-5-yl)]Q[Dab]G[dPro(4R-Bzl(4-F))])
SMILES: C[C@@H](c1c[nH]c2cccc(F)c12)[C@@H]1NC(=O)[C@@H]2C[C@H](F)CN2C(=O)CNC(=O)[C@H](Cc2ccc(C(=O)O)cc2)NC(=O)[C@H](Cc2ccncc2)NC(=O)[C@H](Cc2ccc([C@H]3CC[C@H](C(=O)O)CC3)cc2)NC(=O)[C@H]2C[C@@H](Cc3ccc(F)cc3)CN2C(=O)CNC(=O)[C@H](CCN)NC(=O)[C@H](CCC(N)=O)NC(=O)[C@H](Cc2cncnc2)NC(=O)C2(CNC2)NC(=O)[C@H](Cc2c[nH]c3ccccc23)NC(=O)[C@H](CCC(=O)O)NC(=O)C(C)(C)NC1=O
B10: SEQ ID NO: 7 (peptide)
peptide: cyclo([Bip(4'-COOH)][4Pal][Phe(4-COOH)]G[Pro(cis-4-F)][Trp(βS-Me,4-F)][Aib]EW[Aib][Ala(pyrimidin-5-yl)]Q[Dap]G[dPro(4R-Bzl(4-F))])
SMILES: C[C@@H](c1c[nH]c2cccc(F)c12)[C@@H]1NC(=O)[C@@H]2C[C@H](F)CN2C(=O)CNC(=O)[C@H](Cc2ccc(C(=O)O)cc2)NC(=O)[C@H](Cc2ccncc2)NC(=O)[C@H](Cc2ccc(-c3ccc(C(=O)O)cc3)cc2)NC(=O)[C@H]2C[C@@H](Cc3ccc(F)cc3)CN2C(=O)CNC(=O)[C@H](CN)NC(=O)[C@H](CCC(N)=O)NC(=O)[C@H](Cc2cncnc2)NC(=O)C(C)(C)NC(=O)[C@H](Cc2c[nH]c3ccccc23)NC(=O)[C@H](CCC(=O)O)NC(=O)C(C)(C)NC1=O
B11: SEQ ID NO: 60 (peptide)
peptide: cyclo([Bip(4'-COOH)][4Pal][Phe(4-COOH)]G[Pro(cis-4-F)][Trp(βS-Me,4-F)][Aib]EW[Aib][Ala(pyrimidin-5-yl)]Q[Dab]G[dProc3Bn4Pyrim2OMe])
SMILES: COc1ncc(-c2ccc(C[C@H]3CCN4C(=O)CNC(=O)[C@H](CCN)NC(=O)[C@H](CCC(N)=O)NC(=O)[C@H](Cc5cncnc5)NC(=O)C(C)(C)NC(=O)[C@H](Cc5c[nH]c6ccccc56)NC(=O)[C@H](CCC(=O)O)NC(=O)C(C)(C)NC(=O)[C@H]([C@@H](C)c5c[nH]c6cccc(F)c56)NC(=O)[C@@H]5C[C@H](F)CN5C(=O)CNC(=O)[C@H](Cc5ccc(C(=O)O)cc5)NC(=O)[C@H](Cc5ccncc5)NC(=O)[C@H](Cc5ccc(-c6ccc(C(=O)O)cc6)cc5)NC(=O)[C@@H]34)cc2)cn1

biological target: Recombinant human IL-1β (BioLegend 579404) (human, UniProt P01584 117-269); experiment: cell-based or functional assay

Row | Binder | MRC5 IC50 [nM]
1 | B1 | 0.025
2 | B2 | 0.022
3 | B3 | 0.057
4 | B4 | 0.021
5 | cyclo([Bip(4'-COOH)][4Pal][Phe(4-COOH)]G[Pro(cis-4-F)][Trp(βS-Me,4-F)][Aib]EW[αMeK][Ala(pyrimidin-5-yl)]Q[Dab]G[dPro(4R-Bzl(4-F))]) [SEQ ID NO: 67] | 0.021
6 | B5 | 0.014
7 | B6 | 0.03
8 | B7 | 0.028
9 | B8 | 0.018
10 | B9 | 0.029
11 | B10 | 0.026
12 | B11 | 0.018
